# Test results from the supplement of paper PMC9732359.
# ± gives the uncertainty stated by the source.
# Assay: protein stability index of a GFP-peptide fusion (yeast GPS) (PSI 1-4); higher = more stable; sorted into four equal gates, so the index is relative within each strain
# Procedure, shortened: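 Each library plasmid carries Cherry plus GFP with a tiled 17-residue yeast protein peptide fused downstream, and the pooled library was carried in yeast. Mid-log cultures in leucine-free medium were sorted into four equal gates by GFP/Cherry ratio. Reads from Illumina sequencing of PCR-amplified plasmids from each gate were assigned to strains by barcodes. Per peptide, the protein stability index was computed as the summed products of gate read frequency and gate number.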
Sequence,protein stability index (doa10∆),protein stability index (pdr5∆),protein stability index (san1∆),protein stability index (ubr1∆)
NSYQPSPFFVLDEVDAA [SMC1],2.6 ± 0.12,2.57 ± 0.12,2.49 ± 0.12,2.77 ± 0.087
NTATNALRPSDIFGANA [YOR098C/NUP1],3.08 ± 0.069,3.24 ± 0.074,3.27 ± 0.061,3.2 ± 0.074
NTCTISTSKFESQYPIV [SWP82],2.57 ± 0.089,2.67 ± 0.11,2.97 ± 0.074,2.81 ± 0.071
NTEGSVVYEDSLELEKV [SNF2],2.98 ± 0.063,2.94 ± 0.062,2.48 ± 0.095,3.01 ± 0.095
NTFVTRLNNVFVIGEQG [RPS4A],3.29 ± 0.096,2.89 ± 0.09,3.22 ± 0.13,3.16 ± 0.094
NTKEEFAAAPNDTSSGT [SNF5],2.97 ± 0.067,3.06 ± 0.062,2.96 ± 0.055,2.9 ± 0.062
NTLEFIIEQLSIAAERY [YCG1],2.29 ± 0.052,2.62 ± 0.072,2.16 ± 0.066,2.39 ± 0.036
NTLLISGPFKVNGVPLR [RPL6A],2.25 ± 0.074,2.36 ± 0.059,2.28 ± 0.076,2.72 ± 0.04
NTLYTAIITDDLDTVLK [SRP72],2.19 ± 0.039,2.5 ± 0.031,2.44 ± 0.041,2.6 ± 0.035
NTNNINNSSSGMNNASA [YGL172W/NUP49],3.33 ± 0.11,3.17 ± 0.079,3.25 ± 0.056,3.22 ± 0.094
NTQPSASGFGFGGSQPN [YGR119C/NUP57],3.18 ± 0.18,2.72 ± 0.15,2.84 ± 0.12,2.77 ± 0.13
NTTVISDKQRRLLAKDA [DIS3],2.37 ± 0.051,2.23 ± 0.045,2.06 ± 0.066,2.18 ± 0.045
NVDKNLNEIKEHKIVVL [RPN14],2.39 ± 0.085,2.38 ± 0.069,2.42 ± 0.1,2.74 ± 0.1
NVEESVSKADILLSHHR [POP5],3.16 ± 0.19,–,2.91 ± 0.086,3.03 ± 0.1
NVFNDTPRGNHWMGSSV [YMR129W/POM152],3.39 ± 0.11,3.46 ± 0.099,2.98 ± 0.075,3.12 ± 0.081
NVGTNTYRLGEWSKISV [POP1],1.97 ± 0.25,2.34 ± 0.12,2.69 ± 0.097,3.17 ± 0.12
NVKELWTEKKGKNVINR [SMD2],3.46 ± 0.22,–,3.54 ± 0.18,3.6 ± 0.11
NVLKAPFIKSESKPFSS [SIR4],2.65 ± 0.068,2.81 ± 0.088,2.6 ± 0.064,3.03 ± 0.059
NVMLNIYPRTVIDIEIH [SKI6],1.35 ± 0.039,1.74 ± 0.046,1.58 ± 0.11,1.76 ± 0.034
NVNLDDYPDDSGWTPFH [NAS6],3 ± 0.091,2.91 ± 0.069,2.92 ± 0.061,2.96 ± 0.066
NVRSSVLQKVIEWAEHH [SKP1],2.4 ± 0.096,2.91 ± 0.11,2.4 ± 0.085,2.03 ± 0.099
NVRVGQAVETVGQAGRP [RPN1],2.4 ± 0.11,3.14 ± 0.092,3.19 ± 0.072,3.02 ± 0.1
NVSDEQLSNWQKIRNSE [ITC1],3.15 ± 0.071,3.2 ± 0.095,2.94 ± 0.1,2.98 ± 0.087
NVSENQPWQMDTNNEAD [SNF12],3.11 ± 0.052,3.26 ± 0.064,3.17 ± 0.042,3.25 ± 0.04
NVTIAQGGVLPNIHQNL [HTA1],1.65 ± 0.05,1.48 ± 0.043,1.36 ± 0.066,1.46 ± 0.034
NVTTILDEIFSGCDSTK [ECM29],2.28 ± 0.12,2.8 ± 0.087,2.48 ± 0.073,2.63 ± 0.042
NVVEADLKRFVDESLLS [QCR2],3.14 ± 0.1,3.43 ± 0.1,3.26 ± 0.055,3.46 ± 0.051

Sequence,protein stability index (doa10∆),protein stability index (pdr5∆),protein stability index (san1∆),protein stability index (ubr1∆)
NWRKQKGIDSVVRRRFR [RPL32],2.56 ± 0.1,2.66 ± 0.17,–,2.28 ± 0.18
NYGIVELDPECQLQNSD [RRP43],2.96 ± 0.075,3.01 ± 0.062,2.93 ± 0.054,3.02 ± 0.078
NYQYKIQELRKLLKSLL [MED7],1.43 ± 0.07,1.88 ± 0.095,2.28 ± 0.22,1.81 ± 0.072
PAAANLDALVDCENFFN [YJL039C/NUP192],2.71 ± 0.085,2.77 ± 0.08,2.64 ± 0.057,2.7 ± 0.093
PADRPQGRRNSRNFSTR [SIR4],3.02 ± 0.11,3.21 ± 0.074,3.1 ± 0.071,3.15 ± 0.074
PAKIVNFEKPKNSSQLL [RPN5],3.06 ± 0.075,3.2 ± 0.068,3.21 ± 0.052,3.2 ± 0.06
PAKPALSFGTATSDNKT [YJL041W/NSP1],3.05 ± 0.09,3.12 ± 0.072,2.93 ± 0.097,3.08 ± 0.048
PAKVAEEGINKFKKEKF [SRP54],3.2 ± 0.066,3.44 ± 0.059,3.38 ± 0.046,3.23 ± 0.057
PALESSPVTGDNSPSED [SNF2],3.25 ± 0.067,3.29 ± 0.066,3.14 ± 0.069,3.33 ± 0.041
PANVLLVQSLNDMVLEL [NNF1],2.67 ± 0.18,2.68 ± 0.17,2.83 ± 0.13,2.94 ± 0.057
PASKHDKEVVYFDEWTI [RPC34],3.27 ± 0.081,3.43 ± 0.065,3.04 ± 0.056,3.12 ± 0.082
PATTSQMAKDVTTFLNW [CYT1],3.16 ± 0.12,3.02 ± 0.13,2.84 ± 0.15,3.31 ± 0.27
PCLRKYEEFRDVAIENN [RRP43],2.73 ± 0.064,2.82 ± 0.065,2.9 ± 0.041,2.94 ± 0.047
PDDDKIVPLTEGDIQVL [RPT1],3.21 ± 0.097,3.22 ± 0.1,2.7 ± 0.07,3.01 ± 0.052
PDDMVEINSVGNPGLPQ [ITC1],2.85 ± 0.086,3.26 ± 0.04,3.05 ± 0.072,3.09 ± 0.06
PDEAIEKVFNAYPAARE [FAS1],2.94 ± 0.099,3.22 ± 0.1,3.11 ± 0.059,3.1 ± 0.093
PDISRAVINIRDDGKRE [RPO31],2.78 ± 0.083,2.29 ± 0.07,2.74 ± 0.11,2.77 ± 0.063
PDKLLGVILMFAAILVL [COB],1.63 ± 0.11,1.62 ± 0.11,1.66 ± 0.12,1.59 ± 0.11
PDSNHLSSETGIKLALD [SRB4],3.3 ± 0.087,3.35 ± 0.073,3.33 ± 0.058,3.37 ± 0.066
PDVLLSRVINVVRAASS [RRP6],1.26 ± 0.081,1.57 ± 0.066,1.44 ± 0.12,2.17 ± 0.13
PEDPYFNTLVRIMSTRC [DIS3],2.38 ± 0.093,2.72 ± 0.072,2.56 ± 0.052,1.92 ± 0.049
PEGYKAKSISTSAKEPS [RPO31],1.39 ± 0.085,1.51 ± 0.077,1.45 ± 0.19,1.86 ± 0.09
PELNVSLNLTDDVISNA [MCD1],3.09 ± 0.04,3.21 ± 0.042,3.1 ± 0.036,3.15 ± 0.032
PEVSMIRDIREKELKIF [RPB2],3.13 ± 0.15,2.41 ± 0.084,3.38 ± 0.075,2.69 ± 0.13
PEWMILTCLPVPPPPVR [RPO21],–,3.52 ± 0.17,–,–
PFKRKMLLVDIIPSRMG [REC8],1.81 ± 0.069,1.77 ± 0.072,2.26 ± 0.11,2.15 ± 0.059
